Experimental data from patent publication US20060264369, “Aptamers to von Willebrand Factor and their use as thrombotic disease therapeutics” (published 2006).
Positions count from the first letter of the chain named.

B1: AMX237.F9 (ssDNA)
DNA: CTACCTACGATCTGACTAGCTTGGTAGCGATTCTGTGGAGCTGCGGTTTGGTCGACGTCAGCTTACTCTCATGTAGTTCC
B2: AMX236.C12 (ssDNA)
DNA: B1 DNA with T31C, T34C
B3: AMX236.G4 (ssDNA)
DNA: B1 DNA with T31C, C33T, C41A, C53T
B4: AMX237.G7 (ssDNA)
DNA: B1 DNA with T31C, C33T
B5: AMX236.B8 (ssDNA)
DNA: B1 DNA with T31C, T48C
B6: AMX237.H10 (ssDNA)
DNA: B1 DNA with T31C, T34A, T36A
B7: AMX236.A12 (ssDNA)
DNA: B1 DNA with T31C
B8: AMX237.F12 (ssDNA)
DNA: B1 DNA with C33T
B9: AMX237.C9 (ssDNA)
DNA: B1 DNA with C28T, T31C, C33T
B10: AMX237.B1 (ssDNA)
DNA: B1 DNA with T31C, T32A, T34A
B11: AMX237.D5 (ssDNA)
DNA: B1 DNA with T31C, T32A, C53T
B12: AMX236.A11 (ssDNA)
DNA: B1 DNA with T31C, T48C, T52C
B13: AMX236.H1 (ssDNA)
DNA: CTACCTACGATCTGACTAGCCTCAGATTGACTCCGGCCGACTTGTTTTAATCTTCTGAGTGCTTACTCTCATGTAGTTCC
B14: AMX236.G1 (ssDNA)
DNA: B13 DNA with C38T
B15: AMX236.B3 (ssDNA)
DNA: CTACCTACGATCTGACTAGCCTTACCTATTCCCTTCTGCGGAATACGTCGAGTACTATGCTTACTCTCATGTAGTTCC
B16: AMX238.E7 (ssDNA)
DNA: CTACCTACGATCTGACTAGCGTGCAGTGCCTATTTTAGGCCGTGCGGTGCCTCCGTCACGCTTACTCTCATGTAGTTCC
B17: AMX238.F3 (ssDNA)
DNA: B16 DNA with C40T, T48G
B18: AMX238.F2 (ssDNA)
DNA: B16 DNA with G21A, T31C, T35C, C59T
B19: AMX237.C11 (ssDNA)
DNA: B16 DNA with T35C, C59T
B20: AMX237.E9 (ssDNA)
DNA: CTACCTACGATCTGACTAGCTCCAGTGTTTTGTCTAATAACCGTGCGGTGCCTCCGTGAGCTTACTCTCATGTAGTTCC
B21: AMX237.A11 (ssDNA)
DNA: B20 DNA with G32A, T35C
B22: AMX237.E2 (ssDNA)
DNA: B20 DNA with T31C, G32A
B23: AMX238.D5 (ssDNA)
DNA: B20 DNA with G32A, C34T, T35C, C51T
B24: AMX238.D12 (ssDNA)
DNA: B20 DNA with T31C, G32A, C34T, T35C
B25: AMX238.G5 (ssDNA)
DNA: B20 DNA with G32A, C34T, T35C
B26: AMX237.B11 (ssDNA)
DNA: B20 DNA with G32A
B27: AMX237.A2 (ssDNA)
DNA: B20 DNA with T31C, G32A, T35C
B28: AMX238.D8 (ssDNA)
DNA: B20 DNA with G32A, T35C, T38C
B29: AMX237.B4 (ssDNA)
DNA: B20 DNA with T31C, G32A, T35C, C52T
B30: AMX237.H5 (ssDNA)
DNA: B20 DNA with T31C, G32A, C34T
B31: AMX238.G4 (ssDNA)
DNA: CTACCTACGATCTGACTAGCTTGTCGCACTTTTGGTTGGTCTGGTTGGTTCTAAGTGCGCTTACTCTCATGTAGTTCC
B32: AMX237.F10 (ssDNA)
DNA: CTACCTACGATCTGACTAGCGTGCAGTGCCCATTCCAGGCCGTGCGGTATCCTCCGTCACGCTTACTCTCATGTAGTTCC
B33: AMX236.H2 (ssDNA)
DNA: B32 DNA with C31T, T34C, T50G
B34: AMX237.C5 (ssDNA)
DNA: B32 DNA with C31T, T34C, C35T
B35: AMX237.C4 (ssDNA)
DNA: CTACCTACGATCTGACTAGCTTTCAGTCTTCCACATTTATAGGGTTTGGCATTGGGTCTGGCTTACTCTCATGTAGTTCC
B36: AMX237.G2 (ssDNA)
DNA: B35 DNA with C31T, C34T
B37: AMX238.H11 (ssDNA)
DNA: B35 DNA with C31T
B38: AMX237.F1 (ssDNA)
DNA: B35 DNA with A35G
B39: AMX237.F5 (ssDNA)
DNA: B35 DNA with C24T
B40: AMX237.E5 (ssDNA)
DNA: B35 DNA with C32T
B41: AMX199.G5 (ssDNA)
DNA: CTACCTACGATCTGACTAGCGAAACACTAGGTTGGTTAGGATTGGTGTGTTCCCGCCCTGCTTACTCTCATGTAGTTCC
B42: AMX200.G11 (ssDNA)
DNA: CTACCTACGATCTGACTAGCGGAACGAGAATGCTGATGGATTGCTCAGGTCTGCTGGCTGCTTACTCTCATGTAGTTCC
B43: AMX200.B1 (ssDNA)
DNA: B42 DNA with C25T, T45C
B44: AMX200.B9 (ssDNA)
DNA: B42 DNA with C25T, G57A
B45: AMX200.E8 (ssDNA)
DNA: B42 DNA with C25T, A29G, A36G, C54T
B46: AMX200.D8 (ssDNA)
DNA: B42 DNA with C25T, C33T
B47: AMX200.F9 (ssDNA)
DNA: B42 DNA with C25T, A29G, C44G
B48: AMX200.B8 (ssDNA)
DNA: B42 DNA with C25T, C33T, A36G
B49: AMX200.A7 (ssDNA)
DNA: B42 DNA with C25T, C44T
B50: AMX200.D11 (ssDNA)
DNA: B42 DNA with C25T, G26A

Biological target: von Willebrand factor full length (Homo sapiens, UniProt P04275 SEQ:764-2813)
Assay: filter; 20 nM protein
Conditions: tags: Calbiochem 681300
Protocol: When a significant positive ratio of binding of DNA in the presence of human or rabbit vWF A1 domain versus in the absence of protein was seen, the pools were cloned using the TOPO TA cloning kit (Invitrogen Cat.# 45-0641, Carlsbad, Calif.) according to the manufacturer's instructions. […] All unique clones were assayed twice in a 3-point dot blot screen (no protein target control, 20 nM full length human vWF (Calbiochem Cat.# 681300, La Jolla, Calif.), or 20 nM rabbit vWF A1 domain. The data is presented in the third and fourth columns of Table 17 below as the ratio of the fraction of the aptamer bound to the nitrocellulose in the presence of the target protein to the fraction of aptamer bound in the absence of the target protein.

**Q.** How did the binding signal turn out when B1 was run?
**A.** The binding signal was 2.21 ratio to no protein.

**Q.** With B2 as the binder, how does the binding signal read?
**A.** The binding signal was 1.99 ratio to no protein.

**Q.** How did the binding signal turn out when B3 was run?
**A.** Its binding signal is 1.7 ratio to no protein.

**Q.** B4 was tested. Which binding signal did it give?
**A.** Its binding signal is 2.68 ratio to no protein.

**Q.** B5 was tested. Which binding signal did it give?
**A.** Its binding signal is 1.66 ratio to no protein.

**Q.** With B6 as the binder, how does the binding signal read?
**A.** The binding signal was 1.71 ratio to no protein.

**Q.** With B7 as the binder, how does the binding signal read?
**A.** The binding signal was 2.64 ratio to no protein.

**Q.** How did the binding signal turn out when B8 was run?
**A.** The binding signal was 1.95 ratio to no protein.

**Q.** With B9 as the binder, how does the binding signal read?
**A.** The binding signal was 2.05 ratio to no protein.

**Q.** How did the binding signal turn out when B10 was run?
**A.** The binding signal was 2 ratio to no protein.

**Q.** Which binding signal does the source give for B11 here?
**A.** The binding signal was 1.41 ratio to no protein.

**Q.** Which binding signal does the source give for B12 here?
**A.** Its binding signal is 2.02 ratio to no protein.

**Q.** For B13, which binding signal is on record?
**A.** The binding signal was 1.1 ratio to no protein.

**Q.** Which binding signal does the source give for B14 here?
**A.** Its binding signal is 1.47 ratio to no protein.

**Q.** B15 was tested. Which binding signal did it give?
**A.** Its binding signal is 1.54 ratio to no protein.

**Q.** With B16 as the binder, how does the binding signal read?
**A.** Its binding signal is 3.02 ratio to no protein.

**Q.** Which binding signal does the source give for B17 here?
**A.** The binding signal was 2.83 ratio to no protein.

**Q.** How did the binding signal turn out when B18 was run?
**A.** Its binding signal is 2.84 ratio to no protein.

**Q.** With B19 as the binder, how does the binding signal read?
**A.** Its binding signal is 2.04 ratio to no protein.

**Q.** B20 was tested. Which binding signal did it give?
**A.** The binding signal was 2.13 ratio to no protein.

**Q.** Which binding signal does the source give for B21 here?
**A.** The binding signal was 2.66 ratio to no protein.

**Q.** B22 was tested. Which binding signal did it give?
**A.** Its binding signal is 1.61 ratio to no protein.

**Q.** How did the binding signal turn out when B23 was run?
**A.** Its binding signal is 1.46 ratio to no protein.

**Q.** B24 was tested. Which binding signal did it give?
**A.** The binding signal was 2.4 ratio to no protein.

**Q.** With B25 as the binder, how does the binding signal read?
**A.** Its binding signal is 3.06 ratio to no protein.

**Q.** How did the binding signal turn out when B26 was run?
**A.** Its binding signal is 2.87 ratio to no protein.

**Q.** How did the binding signal turn out when B27 was run?
**A.** The binding signal was 2.6 ratio to no protein.

**Q.** How did the binding signal turn out when B28 was run?
**A.** The binding signal was 2.02 ratio to no protein.

**Q.** For B29, which binding signal is on record?
**A.** The binding signal was 1.42 ratio to no protein.

**Q.** B30 was tested. Which binding signal did it give?
**A.** The binding signal was 1.63 ratio to no protein.

**Q.** For B31, which binding signal is on record?
**A.** Its binding signal is 1.09 ratio to no protein.

**Q.** For B32, which binding signal is on record?
**A.** The binding signal was 2.9 ratio to no protein.

**Q.** How did the binding signal turn out when B33 was run?
**A.** Its binding signal is 2.12 ratio to no protein.

**Q.** How did the binding signal turn out when B34 was run?
**A.** Its binding signal is 2.55 ratio to no protein.

**Q.** B35 was tested. Which binding signal did it give?
**A.** The binding signal was 0.97 ratio to no protein.

**Q.** For B36, which binding signal is on record?
**A.** The binding signal was 1.02 ratio to no protein.

**Q.** With B37 as the binder, how does the binding signal read?
**A.** The binding signal was 0.98 ratio to no protein.

**Q.** How did the binding signal turn out when B38 was run?
**A.** Its binding signal is 0.98 ratio to no protein.

**Q.** Which binding signal does the source give for B39 here?
**A.** The binding signal was 0.99 ratio to no protein.

**Q.** With B40 as the binder, how does the binding signal read?
**A.** Its binding signal is 0.97 ratio to no protein.

Biological target: von Willebrand factor A1 domain (human) (Homo sapiens, UniProt P04275 SEQ:13-246)
Assay: filter; 100 nM protein
Conditions: not given
Protocol: All unique clones were assayed in a 3-point dot blot screen (no protein target control, 100 nM human vWF A1 domain (SEQ ID NO 5), or 100 nM rabbit vWF A1 domain (SEQ ID NO 6). The data are presented in the third and fourth columns of Table 14 below as the ratio of the fraction of the aptamer bound to the nitrocellulose in the presence of the target protein to the fraction of aptamer bound in the absence of the target protein.

**Q.** With B41 as the binder, how does the binding signal read?
**A.** Its binding signal is 1.41 ratio to no protein.

**Q.** For B42, which binding signal is on record?
**A.** The binding signal was 1.73 ratio to no protein.

**Q.** B43 was tested. Which binding signal did it give?
**A.** The binding signal was 4.01 ratio to no protein.

**Q.** Which binding signal does the source give for B44 here?
**A.** The binding signal was 2.54 ratio to no protein.

**Q.** With B45 as the binder, how does the binding signal read?
**A.** The binding signal was 1.04 ratio to no protein.

**Q.** Which binding signal does the source give for B46 here?
**A.** The binding signal was 2.86 ratio to no protein.

**Q.** For B47, which binding signal is on record?
**A.** Its binding signal is 0.97 ratio to no protein.

**Q.** For B48, which binding signal is on record?
**A.** Its binding signal is 4.13 ratio to no protein.

**Q.** How did the binding signal turn out when B49 was run?
**A.** The binding signal was 0.97 ratio to no protein.

**Q.** For B50, which binding signal is on record?
**A.** Its binding signal is 3.34 ratio to no protein.
